Laboratory results taken from article PMC6938514.

Tests used:
[1] = biological target: MBPeng-KFLFAK (Escherichia coli | not stated); assay: SEC; central fractions of the monomeric or dimeric peak incubated for one week at 37 °C, then analytical SEC
[2] = biological target: MBPeng-KFL_(PYK2) (Escherichia coli | not stated) (UniProt Q14289); assay: SEC-SAXS; SWING beamline; 20 mM HEPES, 150 mM NaCl, 2 mM DTT, 2 mM maltose; dimer and monomer peaks fitted with models from the crystal structures
[3] = biological target: MBPeng-KFL_(PYK2) (Escherichia coli | not stated) (UniProt Q14289); assay: SEC; large-scale Superdex 200 after the amylose column; protein applied at 15 mg/ml; 20 mM HEPES pH 7.5, 150 mM NaCl, 2 mM maltose, 2 mM DTT
[4] = biological target: MBPeng-KFL_(PYK2) (Escherichia coli | not stated) (UniProt Q14289); assay: crystal structure; dimeric SEC fractions crystallised by hanging drop at 23 °C, 15 mg/ml, pH 10.5; space group P1

percent of the dimeric fraction converted into monomers after one week at 37 °C [1] [%] | percent of the monomeric fraction converted into dimers after one week at 37 °C [1] [%] | stoichiometry N [2] | stoichiometry N [3] | stoichiometry N [4] | Substance
20 | 20 | – | – | – | MBPeng-KFLFAK (from UniProt Q05397 805-832)
– | – | 2 | 2 | 2 | MBPeng-KFL_(PYK2) (from UniProt Q14289 790-839)
